Laboratory results reported in patent US20180002415A1 (Chugai, published 2018).
Blank lines part the entries; values can stand above or below the binder they belong to.

How the values were obtained:
321-500 [1] = target: T1, 321-500; assay: Western blot of E. coli lysates expressing GST-fused C5 beta-chain fragments
T1 construct: Expressed in E. coli
Protocol: (§1) Anti-C5 monoclonal antibodies (MAbs) were tested for binding to C5 β-chain-derived peptides in Western blot analysis. […] The E. coli samples were harvested after incubation with 1 mM Isopropyl β-D-1-thiogalactopyranoside (IPTG) for 5 hours at 37° C., and centrifuged at 20000×g for 1 min to obtain pellets.
T1 GST fusion polypeptide: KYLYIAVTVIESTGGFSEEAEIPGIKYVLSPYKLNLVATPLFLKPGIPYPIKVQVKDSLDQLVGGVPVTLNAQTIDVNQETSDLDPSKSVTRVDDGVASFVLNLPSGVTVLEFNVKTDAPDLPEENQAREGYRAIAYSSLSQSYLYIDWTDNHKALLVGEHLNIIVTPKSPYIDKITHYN

481-660 [2] = target: T2, 481-660; assay: as above
T2 construct: Expressed in E. coli
Protocol: as §1
T2 GST fusion polypeptide: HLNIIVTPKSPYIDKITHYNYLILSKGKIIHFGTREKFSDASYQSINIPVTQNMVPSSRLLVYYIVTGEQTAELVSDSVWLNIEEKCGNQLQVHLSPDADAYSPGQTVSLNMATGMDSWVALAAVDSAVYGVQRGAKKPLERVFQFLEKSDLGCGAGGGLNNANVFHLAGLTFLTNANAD

161-340 [3] = target: T3, 161-340; assay: as above
T3 construct: Expressed in E. coli
Protocol: as §1
T3 GST fusion polypeptide: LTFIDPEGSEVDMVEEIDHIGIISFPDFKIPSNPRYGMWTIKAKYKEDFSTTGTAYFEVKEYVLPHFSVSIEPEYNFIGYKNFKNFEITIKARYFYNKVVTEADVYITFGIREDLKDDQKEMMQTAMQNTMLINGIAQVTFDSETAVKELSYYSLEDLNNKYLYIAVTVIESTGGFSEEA

[4] = target: T4, C5 peptide 52-124 fused to GST-tag (human, UniProt P01031 52-124); assay: Western blot of E. coli lysates expressing GST-fused MG1-MG2-derived fragments; rhC5 (0.5 ug) as control lane
T4 construct: not shown: GST-tag (glutathione S-transferase); vector and linker not restated
T4 sequence (P01031 52-124): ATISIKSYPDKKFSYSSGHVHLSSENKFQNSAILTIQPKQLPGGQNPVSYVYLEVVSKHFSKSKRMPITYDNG

[5] = target: T5, C5 peptide 45-111 fused to GST-tag (human, UniProt P01031 45-111); assay: as above
T5 construct: not shown: GST-tag (glutathione S-transferase); vector and linker not restated
T5 sequence (P01031 45-111): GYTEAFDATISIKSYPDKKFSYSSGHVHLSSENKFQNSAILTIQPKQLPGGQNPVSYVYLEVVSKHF

[6] = target: T6, C5 peptide 45-124 fused to GST-tag (human, UniProt P01031 45-124); assay: as above
T6 construct: not shown: GST-tag (glutathione S-transferase); vector and linker not restated
T6 sequence (P01031 45-124): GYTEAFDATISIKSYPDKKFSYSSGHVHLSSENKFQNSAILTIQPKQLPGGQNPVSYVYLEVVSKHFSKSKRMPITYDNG

[7] = target: T7, C5 peptide 33-111 fused to GST-tag (human, UniProt P01031 33-111); assay: as above
T7 construct: not shown: GST-tag (glutathione S-transferase); vector and linker not restated
T7 sequence (P01031 33-111): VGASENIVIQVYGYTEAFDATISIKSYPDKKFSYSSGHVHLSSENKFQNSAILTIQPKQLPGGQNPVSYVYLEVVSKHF

[8] = target: T8, C5 peptide 33-108 fused to GST-tag (human, UniProt P01031 33-108); assay: as above
T8 construct: not shown: GST-tag (glutathione S-transferase); vector and linker not restated
T8 sequence (P01031 33-108): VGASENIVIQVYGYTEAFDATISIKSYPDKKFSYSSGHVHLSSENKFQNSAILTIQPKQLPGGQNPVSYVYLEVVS

[9] = target: T9, recombinant cynomolgus monkey C5 (cynomolgus monkey, UniProt P01031 20-1676 (human entry), limits assumed); assay: SPR (Biacore), 37C, pH 7.4, Ab captured on ProA/G
T9 construct: also called cynoC5
T9 chain: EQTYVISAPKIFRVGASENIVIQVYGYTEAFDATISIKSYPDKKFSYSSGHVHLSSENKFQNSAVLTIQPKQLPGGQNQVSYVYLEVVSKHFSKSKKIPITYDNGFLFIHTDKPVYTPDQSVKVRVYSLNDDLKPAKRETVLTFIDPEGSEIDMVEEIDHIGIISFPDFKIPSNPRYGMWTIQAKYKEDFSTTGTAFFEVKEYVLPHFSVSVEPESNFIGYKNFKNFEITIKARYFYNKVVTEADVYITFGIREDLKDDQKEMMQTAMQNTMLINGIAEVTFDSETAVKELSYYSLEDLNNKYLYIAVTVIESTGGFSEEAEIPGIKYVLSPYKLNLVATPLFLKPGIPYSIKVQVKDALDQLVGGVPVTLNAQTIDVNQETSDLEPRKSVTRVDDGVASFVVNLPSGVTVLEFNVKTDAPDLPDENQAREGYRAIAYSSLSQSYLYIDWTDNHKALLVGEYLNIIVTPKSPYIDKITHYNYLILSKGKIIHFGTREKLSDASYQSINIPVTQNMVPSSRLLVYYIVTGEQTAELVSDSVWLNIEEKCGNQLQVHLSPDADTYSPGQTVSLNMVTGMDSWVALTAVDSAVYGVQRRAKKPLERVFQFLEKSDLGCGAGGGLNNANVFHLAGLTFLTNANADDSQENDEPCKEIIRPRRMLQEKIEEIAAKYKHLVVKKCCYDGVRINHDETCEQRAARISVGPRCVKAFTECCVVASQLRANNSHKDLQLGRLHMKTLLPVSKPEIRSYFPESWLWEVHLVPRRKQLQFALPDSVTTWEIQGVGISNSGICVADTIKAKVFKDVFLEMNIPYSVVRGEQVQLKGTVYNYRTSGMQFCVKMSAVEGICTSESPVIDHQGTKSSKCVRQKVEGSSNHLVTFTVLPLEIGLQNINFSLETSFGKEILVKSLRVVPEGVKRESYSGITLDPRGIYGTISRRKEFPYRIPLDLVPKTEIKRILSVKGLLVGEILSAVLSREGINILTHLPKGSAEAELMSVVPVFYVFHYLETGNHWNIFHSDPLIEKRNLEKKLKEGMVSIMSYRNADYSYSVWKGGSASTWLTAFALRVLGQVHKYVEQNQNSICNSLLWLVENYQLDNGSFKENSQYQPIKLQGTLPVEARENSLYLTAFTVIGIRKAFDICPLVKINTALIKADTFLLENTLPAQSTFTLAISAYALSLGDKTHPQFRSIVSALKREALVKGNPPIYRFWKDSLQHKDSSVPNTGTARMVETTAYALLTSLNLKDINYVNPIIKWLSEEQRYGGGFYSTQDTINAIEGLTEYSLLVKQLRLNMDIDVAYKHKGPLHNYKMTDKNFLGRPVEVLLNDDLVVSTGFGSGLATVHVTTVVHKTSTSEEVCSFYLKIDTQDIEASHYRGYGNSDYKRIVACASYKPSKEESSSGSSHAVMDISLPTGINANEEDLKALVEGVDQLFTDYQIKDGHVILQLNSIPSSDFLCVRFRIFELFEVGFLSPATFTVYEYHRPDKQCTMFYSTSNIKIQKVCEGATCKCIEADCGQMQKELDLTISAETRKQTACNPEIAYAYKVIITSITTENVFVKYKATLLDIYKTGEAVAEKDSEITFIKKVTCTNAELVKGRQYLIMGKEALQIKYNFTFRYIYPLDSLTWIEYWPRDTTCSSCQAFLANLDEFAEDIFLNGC
Protocol: (§2) To observe the cross-reactivity of anti-C5 antibodies against human C5 (hC5) and cynomolgus monkey C5 (cynoC5), BIACORE® kinetics analysis was performed.

321-500 [10] = target: T1, 321-500; assay: summary drawing of the binding reactions to C5 beta-chain fragments
[11] = target: T4, C5 peptide 52-124 fused to GST-tag; assay: as above
481-660 [12] = target: T2, 481-660; assay: as above
[13] = target: T5, C5 peptide 45-111 fused to GST-tag; assay: as above
161-340 [14] = target: T3, 161-340; assay: as above
[15] = target: T6, C5 peptide 45-124 fused to GST-tag; assay: as above
[16] = target: T7, C5 peptide 33-111 fused to GST-tag; assay: as above
[17] = target: T8, C5 peptide 33-108 fused to GST-tag; assay: as above
[18] = target: T9, recombinant cynomolgus monkey C5; assay: SPR (Biacore), 37C, pH 7.4
Protocol: as §2

[19] = target: T9, recombinant cynomolgus monkey C5; assay: SPR (Biacore), pH 7.4; KD on cynoC5 against KD on hC5
Protocol: as §2

binding result (321-500 [1]): no binding | binding result (481-660 [2]): no binding | binding result (161-340 [3]): no binding | binding result [4]: no binding | binding result [5]: no binding | binding result [6]: no binding | binding result [7]: no binding | binding result [8]: no binding | Kd [9]: 55.4 nM
B1: CFA0305 (antibody, V domains shown)
VH: QSLEESGGDLVKPGASLAVTCTASGFSSSSSYYMCWVRQAPGKGLEWIGCIYTGSGATYYASWAKGRFTISKTSSTTVTLQMTSLTVADTATYFCASDGGYVTPTHAMYLWGPGTLVTVSS
VL: DVVMTQTPASVSAAVGGTVTIKCQASQNIGSDLAWYQQKPGQPPRLLIYGASKLASGVSSRFSGSGSGKEFTLTISDLECADAVTYYCQCTFVGSSYGNAFGGGTEVVVK
notes: Chimeric, rabbit V regions; also called CFA0305-F760G4

binding result (321-500 [10]): no binding | binding result [11]: no binding | binding result (481-660 [12]): no binding | binding result [13]: no binding | binding result (161-340 [14]): no binding | binding result [15]: no binding | binding result [16]: no binding | binding result [17]: no binding | Kd [9]: 17.9 nM
B2: CFA0366 (antibody, V domains shown)
VH: QSLEESGGDLVKPGASLSLTCTAAGLDFSSSYYMCWVRQAPGKGLEWIACIYAGSSGIIYYANWAKGRFTISRPSSTTVTLQMTSLTAADTATYFCATYPTYGDGGHAFNLWGPGTLVTVSS
VL: AQVLTQTPSSVSAAVGGTVTINCQSSQSVYSSDYLSWYQQKPGQPPKLLIYEASKLASGVPPRFSGSGSGTQFTLTISGVQCDDAATYYCQGTYYSSGWYFAFGGGTEVVVK
notes: Chimeric, rabbit V regions; also called CFA0366-F760G4

binding result (321-500 [1]): no binding | binding result (481-660 [2]): no binding | binding result (161-340 [3]): no binding | binding result [11]: no binding | binding result [13]: no binding | binding result [15]: no binding | binding result [16]: no binding | binding result [17]: no binding | Kd [9]: 2.88 nM | fold weaker KD toward cynoC5 than toward hC5 [18]: 8 fold | fold weaker KD toward cynoC5 than toward hC5 [19]: 8 times
B3: CFA0672 (antibody, V domains shown)
VH: QSVEESGGRLVTPGTPLTLTCTASGFSLSGNAINWVRQAPGKGLEWIGCIYTGSDTTYYATWAKGRFTISKTSTTVDLKIASPTTEDTATYFCARGSGLWGPGTLVTVSS
VL: DVVMTQTPASVSAPVGGTVTIKCQASQNIYSLLAWYQQKPGQPPKLLIYHTSDLASGVPSRFRGSGSGTEFTLTISDLECADAATYYCQCTAYGSSDVGGTFGGGTTVVVE
notes: Chimeric, rabbit V regions; also called CFA0672-F760G4
